Measured values taken from publication PMC3943411, “Modular assembly of designer PUF proteins for specific post-transcriptional regulation of endogenous RNA”.
Positions count from the first letter of the chain named.

How the values were obtained:
Settings in all cases: protein: recombinant; tags: His-tag (pET28a); label: 5' 6-carboxyfluorescein
PUF (S2) [1] = target: T1, PUF (S2) (human, UniProt Q14671 828-1176, S863N;N1122C); assay: fluorescence polarization/anisotropy; cognate; 1 nM RNA; 20 mM Tris-HCl pH 7.5, 0.5 mM EDTA, 50 mM KCl, 0.1 mg/ml BSA; temperature not stated; protein corrected for active fraction (about 30%); KD mean ± SD, n = 3
PUF (S2) [2] = target: T1, PUF (S2); assay: fluorescence polarization/anisotropy; noncognate; 1 nM RNA; 20 mM Tris-HCl pH 7.5, 0.5 mM EDTA, 50 mM KCl, 0.1 mg/ml BSA; temperature not stated; protein corrected for active fraction (about 30%); KD mean ± SD, n = 3
PUF (S4) [3] = target: T2, PUF (S4) (human, UniProt Q14671 828-1176, C935N;N971C;H972Y;C1007N;N1043C); assay: as above
T2 sequence: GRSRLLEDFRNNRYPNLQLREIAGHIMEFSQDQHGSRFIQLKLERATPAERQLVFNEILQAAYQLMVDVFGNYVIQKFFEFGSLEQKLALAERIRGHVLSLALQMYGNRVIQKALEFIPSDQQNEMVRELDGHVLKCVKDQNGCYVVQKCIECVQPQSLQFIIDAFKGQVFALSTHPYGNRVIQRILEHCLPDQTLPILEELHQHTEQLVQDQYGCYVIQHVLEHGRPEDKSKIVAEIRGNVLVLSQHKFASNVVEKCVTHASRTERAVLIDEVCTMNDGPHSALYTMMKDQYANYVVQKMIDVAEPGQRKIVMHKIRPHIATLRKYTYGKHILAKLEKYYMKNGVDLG

PUF (S6) [4] = target: T3, PUF (S6) (human, UniProt Q14671 828-1176, S863N;C935N;N971C;H972Y;C1007N;N1043C;N1122C); assay: as above
T3 sequence: T2 sequence with S36N, N295C

PUF (S4) [5] = target: T2, PUF (S4); assay: fluorescence polarization/anisotropy; cognate; 1 nM RNA; 20 mM Tris-HCl pH 7.5, 0.5 mM EDTA, 50 mM KCl, 0.1 mg/ml BSA; temperature not stated; protein corrected for active fraction (about 30%); KD mean ± SD, n = 3
PUF (S8) = target: T4, PUF (S8) (human, UniProt Q14671 828-1176, S863N;N899S;Q903E;C935N;N971C;H972Y;C1007N;N1043C;S1079N;E1083Q;N1122C); assay: as above
T4 sequence: T2 sequence with S36N, N72S, Q76E, S252N, E256Q, N295C

PUF (S6) [6] = target: T3, PUF (S6); assay: as above

B1: S2 RNA (AGUAUAUU) (ssRNA)
RNA: CCAGAAUAGUAUAUUAUUCG
In the case of B1, the Kd (PUF (S2) [1]) is reported as 0.76 ± 0.11 nM.

B2: WT RNA (UGUAUAUA) (ssRNA)
RNA: CCAGAAUUGUAUAUAUUCG
For B2, the Kd (PUF (S2) [2]) was 6.29 ± 2.8 nM, the Kd (PUF (S4) [3]) was 5.77 ± 1.33 nM and the Kd (PUF (S6) [4]) was 89.6 ± 16.5 nM.

B3: S4 RNA (UGAUAUUA) (ssRNA)
RNA: CCAGAAUUGAUAUUAUUCG
Binder B3 has a Kd (PUF (S4) [5]) of 0.59 ± 0.1 nM.

B4: S8 RNA (AUAUAUGU) (ssRNA)
RNA: CCAGAAUAUAUAUGUUUCG
Binder B4 has a Kd (PUF (S8)) of 2.79 ± 0.69 nM.

B5: S6 RNA (AGAUAUUU) (ssRNA)
RNA: CCAGAAUAGAUAUUUUUCG
Binder B5 has a Kd (PUF (S6) [6]) of 6.05 ± 0.25 nM.
